Experimental data: patent US20170240920A1 (UCL BUSINESS, published 2017)
No end group written: not given here.

B1: Flankedccstreptag-d8-x2-GPI (other)
chain: ECHPQGPPCIEGRKSSGGGGSPAPRPPTPAPTIASECHPQGPPCIEGRKS
modifications: cysteine pairing not given here; also: GPI anchor at C-terminal side, attached after further residues not given here
notes: Two copies of the tag separated by a CD8-based linker; also called MP13024; Flankedccstreptag GPI (x2); not shown: residues between the second tag and the GPI attachment site
B2: StreptagII-d8-x2 on a GPI anchor (other)
chain: WSHPQFEKSGGGGSPAPRPPTPAPTIASWSHPQFEK
modifications: also: GPI anchor at C-terminal side, attached after further residues not given here
notes: Two copies of the tag separated by a CD8-based linker; expressed on the surface of transfected HEK 293T cells; also called StreptagII GPI (x2); Streptagll-d8-x2; not shown: residues between the second tag and the GPI attachment site

Target: T1, Streptavidin (Streptomyces avidinii, UniProt P22629 37-163, limits assumed)
T1 construct: The same protein was used as APC conjugate (flow cytometry) and on beads (sorting, virus capture); also called Streptavidin-APC; Streptavidin conjugated to Allophycocyanin
Assay: flow cytometry, Streptavidin-APC staining of transfected 293T cells

T1 sequence (P22629 37-163 limits assumed): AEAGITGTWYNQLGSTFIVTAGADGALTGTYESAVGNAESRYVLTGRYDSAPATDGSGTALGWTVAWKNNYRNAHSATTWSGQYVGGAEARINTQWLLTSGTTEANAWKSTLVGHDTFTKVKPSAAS

Binder | binding result
B1 | binds
B2 | binds
